Assays:
[1] = molecular target: c-JO4 (cGMP-compliant JO4 junction opener protein) (human adenovirus serotype 3); experiment: SEC + other: negative-stain electron microscopy; SEC on Superdex 200 Increase 10/300 in TBS, 1 mL/min; EM with 1% sodium silicotungstate pH 7.0, protein at 0.1 mg/ml
[2] = molecular target: c-JO4 (cGMP-compliant JO4 junction opener protein) (human adenovirus serotype 3); experiment: SDS-PAGE, not boiled and not reduced; 4-15% gradient gel, running buffer with 0.1% SDS, 1 ug protein, sample not boiled and not reduced

## c-JO4 (cGMP-compliant JO4 junction opener protein) (domain or fragment)
[1]
  stoichiometry N: 6
[2]
  stoichiometry N: 3
